# Target: Chikungunya virus (CHIKV) nonstructural protein 1 (nsP1) H37A mutant (chikungunya virus)
# Experiment: cryo-EM structure; nsP1-mut incubated with SAH and m7GpppAmU at 4 °C overnight; graphene-covered grids; refinement with C12 symmetry, 2.41 Å
substance,measurement,value
Chikungunya virus (CHIKV) nonstructural protein 1 (nsP1) H37A mutant (enzyme),stoichiometry N,12

# Reference: publication PMC10687048
